From publication PMC4259407, “HAX1 regulates E3 ubiquitin ligase activity of cIAPs by promoting their dimerization” (Oncotarget, 2014) come the findings set out here.

The test addresses T1, full-length His-tagged cIAP2 (UniProt Q13489 1-604).
T1 construct: also called His-cIAP2; source: E. coli BL21 (DE3), purified (Ni-NTA)
The experiment in a line: pull-down; in vitro dimerization assay: purified His-cIAP2 and GST-BUCR with HAX1 or HAX1N (0, 0.5 and 5 μg), preincubated at 4°C for 30 min; Ni-NTA agarose, 4 h at 4°C; 20 mM HEPES, 100 mM NaCl, 5% glycerol, 0.1 mg BSA, 0.1% Triton X-100; blots with anti-His and anti-GST; more complex with HAX1, no effect of HAX1N. The following applies: both partners purified.

B1: GST-tagged cIAP2 fragment (GST-BUCR) (domain or fragment, UniProt Q13489 251-604, looked up)
chain: SMQTHAARFKTFFNWPSSVLVNPEQLASAGFYYVGNSDDVKCFCCDGGLRCWESGDDPWVQHAKWFPRCEYLIRIKGQEFIRQVQASYPHLLEQLLSTSDSPGDENAESSIIHFEPGEDHSEDAIMMNTPVINAAVEMGFSRSLVKQTVQRKILATGENYRLVNDLVLDLLNAEDEIREEERERATEEKESNDLLLIRKNRMALFQHLTCVIPILDSLLTAGIINEQEHDVIKQKTQTSLQARELIDTILVKGNIAATVFRNSLQEAEAVLYEHLFVQQDIKYIPTEDVSDLPVEEQLRRLQEERTCKVCMDKEVSIVFIPCGHLVVCKDCAPSLRKCPICRSTIKGTVRTFLS
notes: cIAP2 residues 251-604 (printed as BUCT in the methods, BUCR in the results), cloned into the GST-tagged vector pGEX-6p-1; also called BUCT (a.a 251–604); source: E. coli BL21 (DE3), purified (glutathione-Sepharose 4B)
Turning to B1, the binding result is “binds”.
